These results are taken from publication PMC11645210 (Cell, 2024).

Holding throughout (assay): SPR
What all share (settings): both partners purified

In one test the target is T1, SARS-CoV-1 Urbani RBD (SARS-CoV-1 Urbani).
T1 construct: source: Expi293F, purified (cobalt IMAC, SEC)

For test [1], the target named is T2, SARS-CoV-2 Wuhan-Hu-1 RBD (SARS-CoV-2, UniProt P0DTC2).
T2 construct: source: Expi293F, purified (cobalt IMAC, SEC)

The next test has as its target T3, WIV1 RBD (Bat SARS-like coronavirus WIV1).
T3 construct: source: Expi293F, purified (cobalt IMAC, SEC)

A further test addresses T4, SARS-CoV-1 (Urbani) RBD (SARS-CoV-1 Urbani).
T4 construct: source: Expi293F, purified (cobalt IMAC, SEC)

B1: VIR-7229 Fab (obtained by fragmentation of the IgG) (Fab, V domains shown)
VH: EVQLVESGGSVVQPGRALRLSCAASGITFSSFGMYWVRQAPGKGLEWLGYIAYDGSDTYYADSVKGRFTISRDNSKNTLYLQMNSLRIEDTAVYYCAKDYYPLLSYYYGLDVWGQGTTVTVSS
VL: QSVLTQPRSVSGSPGQSVTISCTGTSSDVGAYNYVSWYQQHPGKAPKFMIYDVDQRPSGVPDRFSGSKSGNTASLIISGLQAEDEADYYCSSYAGSYIWVFGGGTQLTVL
B1: the binding result with SARS-CoV-1 Urbani RBD is reported as “binds”.

B2: VIR-7229 Fab fragment (Fab, V domains shown)
VH: EVQLVESGGSVVQPGRALRLSCAASGITFSSFGMYWVRQAPGKGLEWLGYIAYDGSDTYYADSVKGRFTISRDNSKNTLYLQMNSLRIEDTAVYYCAKDYYPLLSYYYGLDVWGQGTTVTVSS
VL: QSVLTQPRSVSGSPGQSVTISCTGTSSDVGAYNYVSWYQQHPGKAPKFMIYDVDQRPSGVPDRFSGSKSGNTASLIISGLQAEDEADYYCSSYAGSYIWVFGGGTQLTVL
notes: source: ExpiCHO (IgG1); Fab by fragmentation of the IgG with the FabLACTICA Fab kit
As to B2, the Kd (commonly the constant that tells how readily two partners part at equilibrium) was found to be 0.185 nM in test [1], 7.85 nM in the test with WIV1 RBD and 2.46 nM with SARS-CoV-1 (Urbani) RBD. Moreover, the koff (in general, the first-order rate constant of dissociation) in test [1] worked out at 3.67e-05 s⁻¹; in the test with WIV1 RBD, 0.00304 s⁻¹; in the test with SARS-CoV-1 (Urbani) RBD it was 0.000912 s⁻¹. Besides, the kon (commonly the rate constant with which the complex forms) was 199000 M⁻¹ s⁻¹ in test [1], 387000 M⁻¹ s⁻¹ in the test with WIV1 RBD and 375000 M⁻¹ s⁻¹ in the test with SARS-CoV-1 (Urbani) RBD.
